Data reported in patent US20060111296A1 (DYAX, published 2006).

Biological target: T1, plasmin (human, UniProt P00747 97-810, limits assumed)
T1 construct: Active plasmin is a two-chain, disulfide-linked form of plasminogen; also called human plasmin
Assay: inhibition constant for human plasmin; method not described

T1 sequence (P00747 97-810 limits assumed): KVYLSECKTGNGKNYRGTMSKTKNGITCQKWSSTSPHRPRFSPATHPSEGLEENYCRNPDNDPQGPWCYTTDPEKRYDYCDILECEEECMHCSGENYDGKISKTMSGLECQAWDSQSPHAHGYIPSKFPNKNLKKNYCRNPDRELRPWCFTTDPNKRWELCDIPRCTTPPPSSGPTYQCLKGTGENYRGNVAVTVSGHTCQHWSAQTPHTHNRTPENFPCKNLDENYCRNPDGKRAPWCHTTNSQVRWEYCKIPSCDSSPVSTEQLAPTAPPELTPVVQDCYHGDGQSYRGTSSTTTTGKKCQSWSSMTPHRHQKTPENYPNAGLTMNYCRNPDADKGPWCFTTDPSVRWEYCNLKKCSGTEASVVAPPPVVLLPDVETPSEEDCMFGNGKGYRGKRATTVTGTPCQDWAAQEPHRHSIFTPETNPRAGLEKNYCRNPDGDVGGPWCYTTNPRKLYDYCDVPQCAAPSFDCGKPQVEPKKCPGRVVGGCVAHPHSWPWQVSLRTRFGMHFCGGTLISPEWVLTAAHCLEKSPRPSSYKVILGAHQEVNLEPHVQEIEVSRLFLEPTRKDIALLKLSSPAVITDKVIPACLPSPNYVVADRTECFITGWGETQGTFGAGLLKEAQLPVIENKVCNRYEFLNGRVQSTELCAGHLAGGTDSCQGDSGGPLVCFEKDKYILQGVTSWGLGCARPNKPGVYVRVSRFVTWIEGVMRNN

B1: DX-1000 (designed binder)
chain: MHSFCAFKAETGPCRARFDRWFFNIFTRQCEEFIYGGCEGNQNRFESLEECKKMCTRD
notes: Engineered Kunitz domain on the human LACI-K1 framework; also called DX-1000 (unmodified)
  Ki: 88 pM
